Values of other authors as cited in PMC3362950.

Biological target: Kv1.3 (UniProt P22001)
UniProt P22001, sequence (P22001 whole entry): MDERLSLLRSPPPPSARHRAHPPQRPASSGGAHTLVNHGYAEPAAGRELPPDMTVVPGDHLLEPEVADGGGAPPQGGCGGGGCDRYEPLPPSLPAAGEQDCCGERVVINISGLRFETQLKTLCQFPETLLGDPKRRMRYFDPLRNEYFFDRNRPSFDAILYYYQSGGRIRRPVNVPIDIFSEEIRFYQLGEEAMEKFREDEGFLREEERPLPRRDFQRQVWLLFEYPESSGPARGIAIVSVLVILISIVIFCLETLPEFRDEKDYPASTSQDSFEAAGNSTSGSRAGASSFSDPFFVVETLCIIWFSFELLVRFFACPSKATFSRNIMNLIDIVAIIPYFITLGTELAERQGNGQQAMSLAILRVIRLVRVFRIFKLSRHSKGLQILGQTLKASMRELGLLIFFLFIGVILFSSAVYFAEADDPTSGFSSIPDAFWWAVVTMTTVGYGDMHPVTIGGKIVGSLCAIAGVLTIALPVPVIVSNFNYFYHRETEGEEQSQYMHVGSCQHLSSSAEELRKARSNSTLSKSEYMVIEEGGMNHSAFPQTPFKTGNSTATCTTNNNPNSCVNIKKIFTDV

KTX (from UniProt P24662)
Kd: 0.01 nM
